This series can be described thus: soluble on expression in E. coli; label from the status in PepcDB or PDB records.
Turning to “RPDPQEIEAQRKAAIEAARQDSIAKAEAELLAARTQGATPDSIKQAAGYNQYGLLAAATAGAEEQVELANGKIALKLSTKGGAIREVLLRDYKTHDGKPLYLFREGESDFNLPLRTVDNRLVDTRDLYFSPISRTDSSVVMRLAVDSASYLDLAYVLLPDDYRLRMTVSGQNLQSLFPANMTMQDLEWSQRIRRQEKSWKFENQYTSIYYKYSGDEVDRLSDSKQEDKKTLEEPLHWVSFKDKYFASVLVCDSYFENNKLAQKTAAAGSDYLKNCTMSATFPLDVRSGTKARFTFFFGPLKYNMLRAYDKGMKAEDNLDLDHLVYLGASIFRWINRYMIIPASTFLQQYFSN”, the “soluble on expression in E. coli” value is recorded as “not soluble”. Take “MVQEAPAALPTEPGPSPVPAFLGKLWALVGDPGTDHLIRWSPSGTSFLVSDQSRFAKEVLPQYFKHSNMASFVRQLNMYGFRKVVSIEQGGLLRPERDHVEFQHPSFVRGREQLLERVRRKVPALRGDDGRWRPEDLGRLLGEVQALRGVQESTEARLRELRQQNEILWREVVTLRQSHGQQHRVIGKLIQCLFGPLQAGPSNAGGKRKLSLMLDEGSSCPTPAKFNTCPLPGALLQDPYFIQSPLPETNLGLSPHRARGPIISDIPEDSPSPEGTRLSPSSDGRREKGLALLKEEPASPGGDGEAGLALAPNECDFCVTAPPPLPVAVVQAILEGKGSFSPEGPRNAQQPEPGDPREIPDRGPLGLESGDRSPESLLPPMLLQPPQESVEPAGPLDVLGPSLQGREWTLMDLDMELSLMQPLVPERGEPELAVKGLNSPSPGKDPTLGAPLLLDVQAALGGPALGLPGALTIYSTPESRTASYLGPEASPSP”: the “soluble on expression in E. coli” value is reported as “soluble”. Regarding “MSLEIDADRFFKLFDSSVQGLRQCRLISAAFELGVFKALEVPLSAGALAEKIGCDPALMPHFCEALHSLGLLDRFEEGISEEKENAQIAVKGTGEAEGKEKPGDEPGDRIKNDGAVYFVSELSATYLPGNSPFSQKHYLAERIRNVERWSRLPQIMRQGPDIVEKGPFFGEVVHCMAENARCGLLQETVRVVMENVDFTNVKKFLDLGGGHGLYSIALTSLNENLQAFVFDLPPVTSETRYFIDKYGASRVDIIPGDFFKDDIGSDYDVIFSSFNPGGKVPSLIPKIAAALKPEGVFITRQVPDESMKSSPLMSLDWNLWTFEDVKKGSSGYSFENSVLFSEYIDMLGNHGLEVFRALDMTDGSRIVFAWKVTEGHHHHHH”, the “soluble on expression in E. coli” value was “not soluble”.

With “MLKIGVITMALLSFLNAGWLGNLFDNTPTPYYTMPIDLSKTGNVAETDIRIDKEYRTGIALNYDFRRQKNKMTRNEYNNIKVFFGNSYTSGTAIPVKLKIEKIMDKNETTILNDIIIVDNNGGHELHSSLIKEIALSQGKYRIKVETTEDFSELSDLSVLVEIYYIRAPK”, the “soluble on expression in E. coli” value is “not soluble”. On to “MNALPPAIFLMGPTAAGKTDLAIELSKVLPCELISVDSALVYRGMDIGTAKPSKAQLAEFPHRLIDILDPAQSYSAADFRSDALAAMAQITARGNIPLLVGGTMLYFKALLDGLADMPAANAAVRAQLEADAQAFGWQSLHDQLAVVDPVSAARIHPNDPQRLIRALEVYRVSGMSMTAHREQQTAQSTEAAASGCQQLPYTVANLAIAPADRKVLHQRIALRFEQMLDQGFLDEVLALRSRGDLHAGLPSIRAVGYRQVWDHLDGKLTREEMQERGIIATRQLAKRQFTWLRSWDDLHWLDSLASDNLSRALKYLGSVSILSLEHHHHHH”, for which the “soluble on expression in E. coli” value is listed as “not soluble”.

On to “MAWAPPMAKRRSAPATQAAARTPGWTLGGLATILKGFSGQVQFVPEDYPVWLNRVLAEAQTGRGTVGVLGGLHGDFPPLVSRGLLEPLDGLYARLQDRGFPQAFVELGRMGTPNQQYLPWMQATYVMVARKEALKYLPPGADLNALTYEDLKNWAKAIQEATGQRRLGFPAGPGGLIHRFLQGYLYPSYTGSQVRRFKSPEAEAMWRDFRELWRYVNPRSTAYEFMQEPLLSGEVWIAWDHTARLKDALVQRPQDFVAFPAPAGPKGRGFMPVVAGLAIPKTAPDKRAAEALVDYLTRPEVQLLTLKEVGFFPVVRARYGEDLPEGIRLLAEAVSAQSSAKDALPSLLPVGLGDKGGEFNKVYRDAFTRIVLRGEEIRRALDLEAQNLARILRETGAPCWPPDAPSTGACPVE”, for which the “soluble on expression in E. coli” value is reported as “soluble”. The result for “SATETQIRIGVMGCADIARKVSRAIHLAPNATISGVASRSLEKAKAFATANNYPESTKIHGSYESLLEDPEIDALYVPLPTSLHVEWAIKAAEKGKHILLEKPVAMNVTEFDKIVDACEANGVQIMDGTMWVHNPRTALLKEFLSDSERFGQLKTVQSCFSFAGDEDFLKNDIRVKPGLDGLGALGDAGWYAIRATLLANNFELPKTVTAFPGAVLNEAGVILSCGASLSWEDGRTATIYCSFLANLTMEITAIGTKGTLRVHDFIIPYKETEASFTTSTKAWFNDLVTAWVSPPSEHTVKTELPQEACMVREFARLVGEIKNNGAKPDGYWPSISRKTQLVVDAVKESVDKNYQQISLSGR” reads “soluble”; that for “MGSDKIHHHHHHASEEDPWESINRPIFTFNDTLDTYALKPLAQGYQKVTPNFVQDGVHNFFNNLGDVKNLANNLLQAKFHNAGVDTSRLLFNSTFGLAGLIDVATPMGLQRNDEDFGQTLGYWGVGSGPYVMLPFLGPSTLRDAPAKIPDIYVSPYHYMDDVRARNVMFGINTVDTRANLLKSEKLISGDKYIFIRNAYLQNREFKVKDGEVEDDF”, “not soluble”; that for “MGSDKIHHHHHHIRMKINLGVVGAGIASRELHLPALRKLSDLFTVVAVNSRTRKKAEEFAGIVGGDVRVFDSYEEMLSSDSVDAVVLAVPISLNPKMIIAARRANKPVICEKPVAASVKEAVPLLRLPGSSPVYIAENYRHIEVYEKAAELLKEGRIGIPLAFSWLKWVDFGQDNKYVQTKWRQTPEHVGGFISDGGVHDVAALRKTLGDVEEVSGFTKKSLDYLGAENCVVFNMTLENGVIGNYSVVYGAASPLNRFEIVGTDGLMLVDKDGATIEIFAADREKIFVNKTDGFIEEFRDFYNVVEGEKNSLGTVGEALLDLATIEAGLVSAVEKRVVAVDSLLEES”, “not soluble”. The result for “MGSDKIHHHHHHMPYFERDGYYIDRCPECRFVYVRNVPSDGTLAAFYSGYYGDVNEFVPVSRKRLSKRFSKSVENWWHARNLVRCAAGRRKLLEIGYGEGHLLMALKQTRRFELRGIDYATGPMAYMSANGIDVAQGSLFDQHYPDNRFEFIVGFHVLEHVQHLGEFMSEVRRVLAPAGRVYFVVPCVTHFSAVRRRQNWKHFGPPGHLWYFSVTAMRRFMTDQDFKVVSAHCISNRTHLTVLAEKTS” reads “not soluble”; that for “MNVIRTEIEDVLILEPRVFGDDRGFFYESFNQSAFEHILGYPVSFVQDNHSRSSKNVLRGLHFQRGEYAQDKLVRCTHGAVFDVAVDIRPNSVSFGKWVGVLLSADNKQQLWIPKGFAHGFLVLSDIAEFQYKTTNYYHPESDCGICWNDERIAIDWPQTSGLILSPKDERLFTLDELIRLKLIA”, “not soluble”; that for “ETDCRWDGCSQEFDSQEQLVHHINSEHIHGERKEFVCHWGGCSRELRPFKAQYMLVVHMRRHTGEKPHKCTFEGCRKSYSRLENLKTHLRSHTGEKPYMCEHEGCSKAFSNASDRAKHQNRTHSNEKPYVCKLPGCTKRYTDPSSLRKHVKTVHG”, “soluble”. As to “MSDKRETRIKSVQNLAPVYNVRDDAKTRRRVALTQMLGRAYNQFNAGDDAAAEKLLEEVLRQDRSSIDAWTLRATIYSKRGDVVHSGEYYRKAAQLAPQRGDVLNNYGAWLCANGYPAEALVWFERAMADPAYGEQPGTLANSGGCALQAGQRDRADHDLRRALELDPSNAYALESMARNEYDKHRYFEARAFSERRLATTVPATASVLKLAIQIEQELGDRAAASRYQQRLVKEFPETVAVEPRG”, the “soluble on expression in E. coli” value was “soluble”.

The record behind these values is the DeepSol protein solubility set.
